{"source": "paper PMC12299999", "target": "HA-Foldon (HA1-521 fused at the C-terminus to the bacteriophage T4 fibritin trimerization motif) (influenza A or B virus (strain not stated for this experiment) | bacteriophage T4)", "assay": "native gel or EMSA"}
{"substance": "HA-Foldon (HA1-521 fused at the C-terminus to the bacteriophage T4 fibritin trimerization motif)", "values": [{"measurement": "stoichiometry N", "value": 3}]}
